Measurements: US20090117111A1 (XOMA TECHNOLOGY, published 2009)

How the values were obtained:
human FcγRIIIa-158F [1] = biological target: T1, human FcγRIIIa-158F (human, UniProt P08637 17-208, limits assumed); experiment: Biacore (SPR); ratio of KD against rituximab
T1 construct: also called FcγRIIIa aa158F allele

human FcγRIIIa-158V = biological target: T2, human FcγRIIIa-158V (human, UniProt P08637 17-208); experiment: Biacore (SPR)
T2 construct: also called FcγRIIIa aa158V allele

human FcγRIIIa-158F [2] = biological target: T1, human FcγRIIIa-158F; experiment: Biacore (SPR)

T1 sequence (P08637 17-208 limits assumed): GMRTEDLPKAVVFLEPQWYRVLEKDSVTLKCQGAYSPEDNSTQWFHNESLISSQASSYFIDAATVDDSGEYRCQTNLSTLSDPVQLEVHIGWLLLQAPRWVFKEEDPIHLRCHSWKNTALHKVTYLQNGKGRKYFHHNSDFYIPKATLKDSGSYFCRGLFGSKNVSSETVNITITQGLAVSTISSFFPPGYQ
T2 sequence (P08637 17-208 F176V): as the sequence (P08637 17-208 limits assumed) above, with F160V counted along it

B1: monoclonal antibody CHIR-12.12 (antibody, human IgG1, kappa)
heavy: not shown
light: DIVMTQSPLSLTVTPGEPASISCRSSQSLLYSNGYNYLDWYLQKPGQSPQVLISLGSNRASGVPDRFSGSGSGTDFTLKISRVEAEDVGVYYCMQARQTPFTFGPGTKVDIRRTVAAPSVFIFPPSDEQLKSGTASVVCLLNNFYPREAKVQWKVDNALQSGNSQESVTEQDSKDSTYSLSSTLTLSKADYEKHKVYACEVTHQGLSSPVTKSFNRGEC
notes: Fully human IgG1 kappa anti-CD40 antibody; also called CH12.12
Human FcγRIIIa-158F [1]
  fold higher affinity compared with rituximab: 4.6 fold
Human FcγRIIIa-158V
  Kd: 492 nM
Human FcγRIIIa-158F [2]
  Kd: 2800 nM
